The supplement of paper PMC10567573

B1: KCNA4 (parent)
chain: YQLGEEALLKFREDEGFVREEEDR

Variants of: B1
Experiment: protein stability index of a GFP-peptide fusion (GPS, HEK-293T) (PSI 1-6); higher = more stable
Details: c terminus: a fixed tail appended
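Also: lentivirally expressed fusions sorted by FACS into six bins by GFP to DsRed ratio, PSI derived from sequencing read proportions per bin multiplied by bin number.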

In order of rising protein stability index:
1. YQLGEEALLFFREDEGFVREEEDR [K10F]  1.64
2. YQLGEEALLWFREDEGFVREEEDR [K10W]  2.25
3. YQLGEEALLKFWEDEGFVREEEDR [R12W]  2.34
4. YQLGEEALLKFRCDEGFVREEEDR [E13C]  2.42
5. YQLGEEALLVFREDEGFVREEEDR [K10V]  2.88
6. YQLGEEALLKFCEDEGFVREEEDR [R12C]  3.02
7. YQLGEEALLLFREDEGFVREEEDR [K10L]  3.1
8. YQLGEEALLKFRADEGFVREEEDR [E13A]  3.23
9. YQLGEEALLIFREDEGFVREEEDR [K10I]  3.35
10. YQLGEEALLCFREDEGFVREEEDR [K10C]  3.37
11. YQLGEEAWLKFREDEGFVREEEDR [L8W]  3.55
12. YQLGEEALLMFREDEGFVREEEDR [K10M]  3.59
13. YQLGEEALLKFRFDEGFVREEEDR [E13F]  3.63
14. YQLGEEALLKFRGDEGFVREEEDR [E13G]  3.71
15. YQLGEEALLKFVEDEGFVREEEDR [R12V]  3.81
16. YQLGEEALLYFREDEGFVREEEDR [K10Y]  3.94
17. YQLGEEALLKFTEDEGFVREEEDR [R12T]  3.98
18. YQLGEEALWKFREDEGFVREEEDR [L9W]  4.01
19. YQLGEEALLAFREDEGFVREEEDR [K10A]  4.01
20. YQLGEEALLKFMEDEGFVREEEDR [R12M]  4.06
21. YQLGEEALLRFREDEGFVREEEDR [K10R]  4.09
22. YQLGEEALLKFRDDEGFVREEEDR [E13D]  4.11
23. YQLGEEALLKFIEDEGFVREEEDR [R12I]  4.15
24. YQLGEEALNKFREDEGFVREEEDR [L9N]  4.17
25. YQLGEEALLKWREDEGFVREEEDR [F11W]  4.21
26. YQLGEEALFKFREDEGFVREEEDR [L9F]  4.36
27. YQLGEEALLKFLEDEGFVREEEDR [R12L]  4.4
28. YQLGEEALRKFREDEGFVREEEDR [L9R]  4.41
29. YQLGEEALLKFAEDEGFVREEEDR [R12A]  4.41
30. YQLGEEALLSFREDEGFVREEEDR [K10S]  4.43
31. YQLGEEALLKMREDEGFVREEEDR [F11M]  4.44
32. YQLGEEAMLKFREDEGFVREEEDR [L8M]  4.56
33. YQLGEEALKKFREDEGFVREEEDR [L9K]  4.57
34. YQLGEEALLTFREDEGFVREEEDR [K10T]  4.57
35. YQLGEEALLKFQEDEGFVREEEDR [R12Q]  4.59
36. YQLGEEALLKFYEDEGFVREEEDR [R12Y]  4.59
37. YQLGEEALLKFFEDEGFVREEEDR [R12F]  4.62
38. YQLGEEALLKCREDEGFVREEEDR [F11C]  4.63
39. YQLGEEALLKFSEDEGFVREEEDR [R12S]  4.66
40. YQLGEEALLKAREDEGFVREEEDR [F11A]  4.72
41. YQLGEEALLHFREDEGFVREEEDR [K10H]  4.74
42. YQLGEEALLKFHEDEGFVREEEDR [R12H]  4.75
43. YQLGEEALLQFREDEGFVREEEDR [K10Q]  4.83
44. YQLGEEALMKFREDEGFVREEEDR [L9M]  4.84
45. YQLGEEATLKFREDEGFVREEEDR [L8T]  4.88
46. YQLGEEALAKFREDEGFVREEEDR [L9A]  4.88
47. YQLGEEALQKFREDEGFVREEEDR [L9Q]  4.9
48. YQLGEEALCKFREDEGFVREEEDR [L9C]  4.92
49. YQLGEEALLKFKEDEGFVREEEDR [R12K]  4.92
50. YQLGEEALHKFREDEGFVREEEDR [L9H]  4.96
51. YQLGEEALIKFREDEGFVREEEDR [L9I]  5
52. YQLGEEALGKFREDEGFVREEEDR [L9G]  5.03
53. YQLGEEAKLKFREDEGFVREEEDR [L8K]  5.04
54. YQLGEEALSKFREDEGFVREEEDR [L9S]  5.05
55. YQLGEEALLNFREDEGFVREEEDR [K10N]  5.07
56. YQLGEEALLKFGEDEGFVREEEDR [R12G]  5.08
57. YQLGEEALPKFREDEGFVREEEDR [L9P]  5.09
58. YQLGEEALYKFREDEGFVREEEDR [L9Y]  5.09
59. YQLGEEALLKQREDEGFVREEEDR [F11Q]  5.1
60. YQLGEEALLKIREDEGFVREEEDR [F11I]  5.12
61. YQLGEEAPLKFREDEGFVREEEDR [L8P]  5.13
62. YQLGEEARLKFREDEGFVREEEDR [L8R]  5.13
63. YQLGEEALTKFREDEGFVREEEDR [L9T]  5.15
64. YQLGEEALVKFREDEGFVREEEDR [L9V]  5.15
65. YQLGEEALLKFNEDEGFVREEEDR [R12N]  5.17
66. YQLGEEAILKFREDEGFVREEEDR [L8I]  5.21
67. YQLGEEAYLKFREDEGFVREEEDR [L8Y]  5.21
68. YQLGEEALLKHREDEGFVREEEDR [F11H]  5.21
69. YQLGEEALLKFEEDEGFVREEEDR [R12E]  5.21
70. YQLGEEALLKTREDEGFVREEEDR [F11T]  5.27
71. YQLGEEALLKVREDEGFVREEEDR [F11V]  5.35
72. YQLGEEALEKFREDEGFVREEEDR [L9E]  5.37
73. YQLGEEALLEFREDEGFVREEEDR [K10E]  5.37
74. YQLGEEALLKLREDEGFVREEEDR [F11L]  5.38
75. YQLGEEALLKSREDEGFVREEEDR [F11S]  5.44
76. YQLGEEALLKYREDEGFVREEEDR [F11Y]  5.46
77. YQLGEEASLKFREDEGFVREEEDR [L8S]  5.47
78. YQLGEEALLKKREDEGFVREEEDR [F11K]  5.48
79. YQLGEEANLKFREDEGFVREEEDR [L8N]  5.5
80. YQLGEEALLGFREDEGFVREEEDR [K10G]  5.52
81. YQLGEEALLKFDEDEGFVREEEDR [R12D]  5.54
82. YQLGEEALLDFREDEGFVREEEDR [K10D]  5.55
83. YQLGEEALLKPREDEGFVREEEDR [F11P]  5.57
84. YQLGEEAVLKFREDEGFVREEEDR [L8V]  5.58
85. YQLGEEALLPFREDEGFVREEEDR [K10P]  5.59
86. YQLGEEALLKGREDEGFVREEEDR [F11G]  5.61
87. YQLGEEAHLKFREDEGFVREEEDR [L8H]  5.62
88. YQLGEEALLKFPEDEGFVREEEDR [R12P]  5.62
89. YQLGEEAQLKFREDEGFVREEEDR [L8Q]  5.65
90. YQLGEEALLKEREDEGFVREEEDR [F11E]  5.67
91. YQLGEEALLKNREDEGFVREEEDR [F11N]  5.75
92. YQLGEEALLKRREDEGFVREEEDR [F11R]  5.8
93. YQLGEEALLKDREDEGFVREEEDR [F11D]  5.83
94. YQLGEEALDKFREDEGFVREEEDR [L9D]  5.87
